Data published in US20260146091A1.

Assays:
[1] = target: mPD-1 (mouse) (UniProt Q02242); experiment: mPD-1/mPD-L1 binding inhibition
[2] = target: mPDL-1 (mouse) (UniProt Q9EP73); experiment: mPD-1/mPD-L1 binding inhibition
mPDL-1 (mouse), sequence (Q9EP73 19-239): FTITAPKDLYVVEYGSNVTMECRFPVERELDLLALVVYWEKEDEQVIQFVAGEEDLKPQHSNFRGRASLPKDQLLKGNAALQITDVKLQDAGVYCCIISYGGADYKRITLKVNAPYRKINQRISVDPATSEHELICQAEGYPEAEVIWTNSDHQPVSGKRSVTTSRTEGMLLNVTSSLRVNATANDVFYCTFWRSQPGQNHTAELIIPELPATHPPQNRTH

mPD-1 (mouse), sequence (Q02242 25-169): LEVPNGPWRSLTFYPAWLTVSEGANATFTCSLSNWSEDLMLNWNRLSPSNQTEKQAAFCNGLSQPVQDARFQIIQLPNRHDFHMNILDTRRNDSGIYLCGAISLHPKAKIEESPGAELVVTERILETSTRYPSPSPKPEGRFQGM

| Substance | IC50 [1] | IC50 [2] |
| --- | --- | --- |
| Clone RMPI-14 | 31.1 nM |  |
| Clone 10F.9G2 |  | 1.09 nM |
